Assay results from patent US20250264470A1 (RHODE ISLAND HOSPITAL, published 2025).

Molecular target: T1, NPVEDS peptide (LRC1 epitope, residues 286-291 of ASPH) (human)
T1 peptide: NPVEDS
Experiment: peptide inhibition (data not shown)

- binding result: binds
B1: LRC1 monoclonal antibody (antibody, V domains shown)
VH: EVQLVESGGGLVKPGGSLKFSCAASGFTFSRYAMPWVRQTPEKRLEWVATISSGGSYTYYPDSVKGRLTISRDNAKNTLYLQMSSLRSEDTAMYYCARQGNYYGSSHLYYAMDYWGQGTSVTVSS
VL: QLVLTQSSSASFSLGASAKLTCTLNSQHRAYTIEWYQQQPLKPPKYVMELKKDGSHSTGDGIPDRFSGSSSGADRYLSISNIQPEDEAIYICGVGDTIKEQFVYVFGGGTKVTVL
notes: also called LRC1 mAb; LRC1 antibody
